± gives the uncertainty stated by the source.
B1: Proto-oncogene vav, residues 782 to 842; numbered along this chain, P15498 (parent)
chain: KYFGTAKARYDFCARDRSELSLKEGDIIKILNKKGQQGWWRGEIYGRVGWFPANYVEEDYS
B2: SAM and SH3 domain-containing protein 1, residues 630 to 700; numbered along this chain, O94885 (parent)
chain: GRPPQPKSVEDLLDRINLKEHMPTFLFNGYEDLDTFKLLEEEDLDELNIRDPEHRAVLLTAVELLQEYDSN

Variants of: B1
Experiment: abundance fitness (aPCA) (normalised: wild type 0, dead -1); higher = more abundant; growth selection in yeast, the domain comes from the species named
Conditions: Homo sapiens

Variant	abundance fitness
K1Q	0.088 ± 0.27
K1H	-0.109 ± 0.45
K1D	-0.437 ± 0.27
K1G	-0.227 ± 0.095
K1R	-0.643 ± 0.2
K1E	-0.16 ± 0.12
K1F	-0.159 ± 0.36
K1L	-0.21 ± 0.1
K1P	-0.822 ± 0.32
K1A	-0.456 ± 0.14
K1N	0.099 ± 0.13

Variants of: B2
Experiment: as above
Conditions: Homo sapiens

Variant	abundance fitness
K37C	-0.449 ± 0.072
K37M	-0.16 ± 0.057
K37L	-0.555 ± 0.053
K37Q	-0.478 ± 0.073
D32I	-0.568 ± 0.079
D32Y	-0.776 ± 0.07
D32L	-0.767 ± 0.046
D32S	0.094 ± 0.033
D32F	-0.803 ± 0.092
L65Y	-0.961 ± 0.093
L65D	-0.511 ± 0.09
L65W	-0.959 ± 0.097
L65T	-0.767 ± 0.063
L65S	-0.69 ± 0.048
L65R	-0.82 ± 0.064
I16L	0.128 ± 0.038
I16Y	-0.009 ± 0.058
I16W	-0.611 ± 0.088
I16G	-0.674 ± 0.085
I16P	-0.994 ± 0.099
D45A	-0.622 ± 0.057
D45M	-0.247 ± 0.051
D45W	-0.499 ± 0.064

Variant	abundance fitness
D45S	-0.544 ± 0.04
D45R	-0.415 ± 0.043
E20I	-0.244 ± 0.061
E20N	-0.455 ± 0.084
V62Q	-0.769 ± 0.091
V62L	-0.647 ± 0.051
V62D	-0.607 ± 0.11
V62P	-0.517 ± 0.062
V62K	0.005 ± 0.059
F36L	-0.365 ± 0.043
F36Y	-0.878 ± 0.095
F36S	-0.749 ± 0.06
F36A	-0.717 ± 0.067
F36P	-0.9 ± 0.092
G29N	-0.762 ± 0.09
G29E	-0.844 ± 0.1
G29S	-0.834 ± 0.059
T24L	-0.367 ± 0.04
T24M	-0.379 ± 0.056
T24K	-0.079 ± 0.046
I49A	-0.98 ± 0.072
I49P	-1 ± 0.08
I49T	-0.863 ± 0.065

Variant	abundance fitness
I49C	-0.728 ± 0.072
I49W	-0.823 ± 0.081
I49S	-0.876 ± 0.052
I49Y	-0.869 ± 0.07
R2L	-0.246 ± 0.054
R2M	-0.442 ± 0.06
R2Y	-0.317 ± 0.069
R2F	-0.21 ± 0.066
R2A	-0.489 ± 0.072
D51L	-0.632 ± 0.042
D51V	-0.553 ± 0.051
D51W	-0.862 ± 0.079
D51Y	-0.774 ± 0.06
D51Q	-0.307 ± 0.048
D51E	-0.369 ± 0.063
D51H	-0.447 ± 0.052
D51C	-0.396 ± 0.052
E41L	-0.635 ± 0.05
E41D	-0.419 ± 0.075
E41K	-0.302 ± 0.066
T60E	0.398 ± 0.052
T60H	0.302 ± 0.041
T60A	0.242 ± 0.042

Variant	abundance fitness
T60Q	0.266 ± 0.043
T60V	-0.735 ± 0.069
N71V	0.035 ± 0.053
N71A	0.116 ± 0.045
N71Y	-0.132 ± 0.062
N71I	-0.117 ± 0.054
N71G	0.041 ± 0.053
N71K	0.007 ± 0.058
N71F	-0.117 ± 0.082
L38Q	0.175 ± 0.044
L38G	-0.061 ± 0.038
L38Y	-0.117 ± 0.056
L38A	-0.063 ± 0.04
L38M	-0.011 ± 0.05
L38I	-0.76 ± 0.096
P52W	-0.782 ± 0.071
P52F	-1.04 ± 0.11
P52R	-0.499 ± 0.041
P52T	-0.437 ± 0.045
N28C	-0.582 ± 0.065
N28F	-0.426 ± 0.062
N28P	-0.856 ± 0.075
N28S	-0.395 ± 0.039

Variant	abundance fitness
N28Q	-0.644 ± 0.077
G1I	0.047 ± 0.082
G1D	0.195 ± 0.057
G1M	0.013 ± 0.098
G1E	0.166 ± 0.074
E40F	-1.01 ± 0.089
E40S	0.252 ± 0.032
E40M	-0.246 ± 0.056
E40N	0.196 ± 0.041
L39I	0.058 ± 0.041
L39M	-0.319 ± 0.055
L39E	-0.771 ± 0.1
L39S	-0.818 ± 0.053
L39T	-0.79 ± 0.059
R55G	-1.02 ± 0.086
R55A	-0.9 ± 0.082
R55M	-0.896 ± 0.1
R55C	-0.888 ± 0.087
R55P	-0.895 ± 0.087
R55Y	-0.935 ± 0.093
R55I	-0.696 ± 0.078
N48T	-0.916 ± 0.2
N48Q	-0.393 ± 0.13

Variant	abundance fitness
N48A	-0.343 ± 0.088
Q66E	-0.623 ± 0.088
L12V	-0.464 ± 0.045
L12I	-0.328 ± 0.067
L12N	-0.794 ± 0.088
R50K	0.032 ± 0.058
R50G	-0.371 ± 0.05
L64M	0.193 ± 0.043
L64N	0.295 ± 0.041
L64C	0.019 ± 0.044
H21D	-0.889 ± 0.097
H21T	-0.685 ± 0.061
H21K	-0.712 ± 0.075
H21E	-0.689 ± 0.09
E31Y	-0.124 ± 0.042
E31S	0.196 ± 0.032
E31D	0.129 ± 0.042
E31N	0.171 ± 0.04
E31G	0.313 ± 0.035
S8M	-1.03 ± 0.14
S8Y	-0.899 ± 0.085
S8D	-0.316 ± 0.076
S8W	-1.35 ± 0.24

Variant	abundance fitness
V57T	0.232 ± 0.038
V57E	0.196 ± 0.049
V57L	0.199 ± 0.034
V57F	-0.747 ± 0.077
V57C	0.107 ± 0.051
L26D	-0.667 ± 0.089
L26G	-0.697 ± 0.06
L26S	-0.337 ± 0.045
L26Q	-0.11 ± 0.049
L26F	-0.167 ± 0.054
L26W	-0.533 ± 0.064
L26C	-0.464 ± 0.073
L26K	0.034 ± 0.044
L26P	-0.825 ± 0.073
L26R	-0.111 ± 0.039
L58D	-0.347 ± 0.08
L58N	-0.51 ± 0.075
L58A	-0.531 ± 0.06
